Source: publication PMC4769881 (Molecular cell, 2016)

Target: the molecule itself
Experiment: AUC

B1: NBB182 (human MLKL N-terminal helix bundle and whole brace, to residue 182), tagless purified protein (domain or fragment, UniProt Q8NB16 1-182, looked up)
chain: MENLKHIITLGQVIHKRCEEMKYCKKQCRRLGHRVLGLIKPLEMLQDQGKRSVPSEKLTTAMNRFKAALEEANGEIEKFSNRSNICRFLTASQDKILFKDVNRKLSDVWKELSLLLQVEQRMPVSPISQGASWAQEDQQDADEDRRAFQMLRRDNEKIEASLRRLEINMKEIKETLRQYLPP
stoichiometry N: 2
